Laboratory results as given in patent publication US20230279105A1 (SINGLE CELL TECHNOLOGY, published 2023).

Each binder was assayed against T1, Human TIM-3 Human Fc tagged protein (human, fluorescently labeled with HiLyte Fluor 555 (sites not given)) (assay: capture slide probed with labeled TIM-3-Fc;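 further: IgG from single CD138-enriched plasma cells, isolated from lymphocytes, immobilized on a derivatized glass slide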).
T1 construct: Bought construct; also called TIM-3 protein tagged with human Fc; ACROBiosystems catalog no: TM3-H5258

| Binder | binding result |
| --- | --- |
| SCT-Fa012 (antibody, V domains shown, murine IgG) VH: EVKLVESEGGLVQPGSSMKLSCTASGFTFSDYYMAWVRQVPEKGLEWVAHINFDGSGTYYLDSLKSRFIISRDNAKNILYLQLSSLKSEDTATYYCARLYDGSHDYWGQGTTLTVSS VL: not shown | binds |
| SCT-Fa015 (antibody, V domains shown, murine IgG) VH: EVKLVESEGGLVQPGSSMKLSCTASGFTFSDYYMAWVRQVPEKGLEWVAHINFDGSGTYYLDSLKSRFIISRDNEKSILYLQLSSLKSEDTATYYCARLYDGSHDYWGQGTTLTVSS VL: not shown | binds |
| SCT-Fa014 (antibody, V domains shown, murine IgG) VH: EVKLVESEGGLVQPGSSMKLSCTASGFTFSDYYMAWVRQVPEKGLEWVAHINFDGSGTYYLDSLKSRFIISRDNAKNILYLQLSSLKSEDTGTYYCARLYDGSHDYWGQGTTLTVSS VL: not shown | binds |
| SCT-Fa017 (antibody, V domains shown, murine IgG) VH: EVKLVESEGGLVQPGSSMKLSCTASGFTFSDYYMAWVRQVPEKGLEWVANINFDGSGTYYLDSLKSRFIISRDNAKNILYLQMSSLKSEDTATYYCARLYDGSHDYWGQGTTLTVSS VL: not shown | binds |
| SCT-Fa010 (antibody, V domains shown, murine IgG) VH: EVKLVESEGGLVQPGSSMKLSCTASGFTFSDYYMAWVRQVPEKGLEWIANINFDGSGTYYLDSLKSRFIISRDNAKNILYLQMSSLKSEDTATYYCARLYDGSLDYWGQGTTLTVSS VL: not shown | binds |
| SCT-Fa013 (antibody, V domains shown, murine IgG) VH: EVKLVESEGGLVQPGSSMKLSCTASGFTFSDYYMAWVRQVPEKGLEWVAHINFDGSGTYYLDSLKSRFIISRDNAKNILYLQLSSLKSEDTGTYYCARLYDGSHDYWGQGTTLTVSS VL: not shown | binds |
| SCT-Fa016 (antibody, V domains shown, murine IgG) VH: EVKLVESEGGLVQPGSSMKLSCTASGFTFSDYYMAWVRQVPEKGLEWVAHINFDGSGTYYLDSLKSRFIISRDNTKNILYLQLSSLKSEDTATYYCARLYDGSHDYWGQGTTLTVSS VL: not shown | binds |
| SCT-Fa019 (antibody, V domains shown, murine IgG) VH: EVKLVESEGGLVQPGSSMKLSCTASGFTFSDYYMSWVRQVPEKGLEWVANINFDGSGTYYLDSLKSRFIISRDNAKNILYLQMSSLRSEDTATYYCARLYDGSHDYWGQGSALTVSS VL: not shown | binds |
| SCT-Fa011 (antibody, V domains shown, murine IgG) VH: EVKLVESEGGLVQPGSSMKLSCTASGFTFSDYYMAWVRQVPEKGLEWVAHINFDGSGTYYLDSLKSRFIISRDNAKNILYLQLSSLKSEDTATYYCARLYDGSHDYWGQGTTLTVSS VL: not shown | binds |
| SCT-Fa107 (antibody, V domains shown, murine IgG) VH: QVQLKQSGAELVRPGTSVKLSCKASGYTLTDYYINWVKQRPGQGLEWIARIYPGNGNTYYNEKFKGKATLTAEKSSSTVNMQVSSLTSEDSAVYFCARGGSSDRIYYYAMDYWGQGTSVTVSS VL: DIQMNQSPSSLSASLGDTITITCHASQNINVWLSWYQQKPGNIPKLLIYKASNLHTGVPSRFSGSGSGTGFTLTISSLQPEDIATYYCQQGQSYPLTFGSGTKLEIK | binds |
| SCT-Fa109 (antibody, V domains shown, murine IgG) VH: QVQLKQSGAELVRPGTSVKLSCKASGYTLTDYYINWVKQRPGQGLEWIARIYPGNGNTYYNEKFKGKATLTAEKSSSTVNMQVTSLTSEDSAIYFCARGGSSDRIYYYAMDYWGQVTSVTVSS VL: DIQMNQSPSSLSASLGDTITITCHASQNINVWLSWYQQKPGNIPKLLIYKASNLHTGVPSRFSGSGSGTGFTLTISSLQPEDIATYYCQQGQSYPLTFGSGTKLEVK | binds |
| SCT-Fa093 (antibody, V domains shown, murine IgG) VH: QVHLKQSGAELVRPGTSVKLSCKASGYTLTDYYINWVKQRPGQGLEWIARIYPGNGNTYYNEKFKGKATLTAEKSSSTVNMQVSSLTSEDSAVYFCARGGSSDRIYYYAMDYWGQGTSVTVSS VL: DIQMNQSPSSLSASLGDTITITCHASQNINVWLSWYQQKPGNIPKLLIYKASNLHTGVPSRFSGSGSGTGFTLTISSLQPEDIATYYCQQGQSYPLTFGSGTKLEIK | binds |
| SCT-Fa099 (antibody, V domains shown, murine IgG) VH: QVQLKQSGAELVRPGTSVKLSCKASGYILTDYYINWVKQRPGQGLEWIARIYPGNGNTYYNEKFKGKATLTAEKSSSTVNMQVSSLTSEDSAVYFCARGGSSDRIYYYAMDYWGQGTSVTVSS VL: DIQMNQSPSSLSASLGDTITITCHASQNINVWLSWYQQKPGNIPKLLIYKASNLHTGVPSRFSGSGSGTGFTLTISSLQPEDIATYYCQQGQSYPLTFGSGTKLEIK | binds |
| SCT-Fa103 (antibody, V domains shown, murine IgG) VH: QVQLKQSGAELVRPGTSVKLSCKASGYTLTDYYINWVKQRPGQGLEWIARIYPGNGNTLYNAKFEGKATLTAERSSSTAYMQVSSLTSEDSAVYFCARGGSSVRVYYYAMDFWGQGTSVTVSS VL: DIQMNQSPSSLSASLGDTITITCHASQNINVWLSWYQQKPGNIPKLLIYKASNLHTGVPSRFSGSGSGTGFTLTISSLQPEDIATYYCQQGQSYPLTFGSGTKLEIK | binds |
| SCT-Fa105 (antibody, V domains shown, murine IgG) VH: QVQLKQSGAELVRPGTSVKLSCKASGYTLTDYYINWVKQRPGQGLEWIARIYPGNGNTYYNEKFKGKATLTAEKSSNTVNMQVSSLTSEDSAVYFCARGGSSDRIYYYAMDYWGQGTSVTVSS VL: DIQMNQSPSSLSASLGDTITITCHASQNINVWLSWYQQKPGDIPKLLIYKASNLHTGVPSRFSGSGSGTGFTLTISSLQPEDIATYYCQQGQSYPLTFGSGTKLEIK | binds |
| SCT-Fa110 (antibody, V domains shown, murine IgG) VH: QVQLKQSGAELVRPGTSVRLSCKASGYTLTDYYINWVKQRPGQGLEWIARIYPGNGNTYYNEKFKGKATLTAEKSSSTVNMQVTSLTSEDSAVYFCARGGSSDRIYYYAMDYWGQGTSVTVSS VL: DIQMNQSPSSLSASLGDTITITCHASQNINVWLSWYQQKPGNIPKLLIYKASNLHTGVPSRFSGSGSGTGFTLTISSLQPEDIATYYCQQGQSYPLTFGSGTKLEIK | binds |
| SCT-Fa108 (antibody, V domains shown, murine IgG) VH: QVQLKQSGAELVRPGTSVKLSCKASGYTLTDYYINWVKQRPGQGLEWIARIYPGNGNTYYNEKFKGKATLTAEKSSSTVNMQVTSLTSEDSAIYFCARGGSSDRIYYYAMDYWGQGTSVTVSS VL: DIQMNQSPSSLSASLGDTITITCHASQNINVWLSWYQQKPGNIPKLLIYKASNLHTGVPSRFSGSGSGTGFTLTISSLQPEDIATYYCQQGQSYPLTFGSGTKLEVK | binds |
| SCT-Fa100 (antibody, V domains shown, murine IgG) VH: QVQLKQSGAELVRPGTSVKLSCKASGYTLIDYYINWVKQRPGQGLEWIARIYPGNGNTYYNEKFKGKATLTAEKSSSTVNMQVSSLTSEDSAVYFCARGGSSDRIYYFAMDYWGQGTSVTVSS VL: DIQMNQSPSSLSASLGDTITITCHASQNINVWLSWYQQKPGNIPKLLIYKASNLHTGVPSRFSGSGSGTGFTLTISSLQPEDIATYYCQQGQSYPLTFGSGTKLEIK | binds |
| SCT-Fa106 (antibody, V domains shown, murine IgG) VH: QVQLKQSGAELVRPGTSVKLSCKASGYTLTDYYINWVKQRPGQGLEWIARIYPGNGNTYYNEKFKGKATLTAEKSSSTAYMQVSSLTSEDSAVYFCARGGSSVRVYYYAMDYWGQGTSVTVSS VL: DIQMNQSPSSLSASLGDTITITCHASQNINVWLSWYQQKPGNIPKLLIYKASNLHTGVTSRFSGSGSGTGFTLTISSLQPEDIATYYCQQGQSYPLTFGSGTKLEIK | binds |
| SCT-Fa194 (antibody, V domains shown, murine IgG) VH: QVQLRQSGAELVRPGTSVKLSCKASGYTLTDYYINWVKQRPGQGLEWIARIYPGNGNTYYNEKFKGKATLTAEKSSSTVNMQVSSLTSEDSAVYFCARGGSSDRIYYYAMDYWGQGTSVTVSS VL: DIQMNQSPSSLSASLGDTITITCHASQNINVWLSWYQQKPGNILKLLIYKASNLHTGVPSRFSGSGSGTGFTLTISSLQPEDIATYYCQQGQSYPLTFGSGTKLEIK | binds |
| SCT-Fa102 (antibody, V domains shown, murine IgG) VH: QVQLKQSGAELVRPGTSVKLSCKASGYTLNDYYINWVKQRPGQGLEWIARIYPGNNNTYYNEKFKGKATLTAEKSSNTAYMQVSSLTSEDSAVYFCARGGSSVRVYYYAMDYWGQGTSVTVSS VL: DIQMNQSPSSLSASLGDTITITCHASQNINVWLSWYQQKPGNIPKLLIYKASNLHTGVPSRFSGSGSGTGFTLTISSLQPEDIATYYCQQGQSYPLTFGSGTKLEIK | binds |
| SCT-Fa104 (antibody, V domains shown, murine IgG) VH: QVQLKQSGAELVRPGTSVKLSCKASGYTLTDYYINWVKQRPGQGLEWIARIYPGNGNTYYNEKFKCKATLTAEKSSSTVNMQVTSLTSEDSAIYFCARGGSSDRIYYYAMDYWGQGTSVTVSS VL: DIQMNQSPSSLSASLGDTITITCHASQNINVWLSWYQQKPGNIPKLLIYKASNLHTGVPSRFSGSGSGTGFTLTISSLQPEDIATYYCQQGQSYPLTFGSGTKLEVK | binds |
| SCT-Fa101 (antibody, V domains shown, murine IgG) VH: QVQLKQSGAELVRPGTSVKLSCKASGYTLIDYYINWVKQRPGQGLEWIARIYPGNGNTYYNEKFKGKATLTAEKSSSTVNMQVSSLTSEDSAVYFCARGGSSDRIYYYAMDYWGQGTSVTVSS VL: DIQMNQSPSSLSASLGDTITITCHASQNINVWLSWYQQKPGNIPKLLIYKASNLHTGVPSRFSGSGSGTGFTLTISSLQPEDIATYYCQQGQSYPLTFGSGTKLEIK | binds |
| SCT-Fa097 (antibody, V domains shown, murine IgG) VH: QVQLKQSGAELVRPGTSVKLSCKASGYILTDYYINWVKQRPGQGLEWIARIYPGNGNTYYNEKFKGKATLTAEKSSSTVNMQVSSLTSEDSAVYFCARGGSSDRIYYYAMDHWGQGTSVTVSS VL: DIQMNQSPSSLSASLGDTINITCHASQNINVWLSWYQQKPGNIPKLLIYKASNLHTGVPLRFSGSGSGTGFTLTISSLQPEDIATYYCQQGQSYPLTFGSGTKLEIK | binds |
| SCT-Fa098 (antibody, V domains shown, murine IgG) VH: QVQLKQSGAELVRPGTSVKLSCKASGYILTDYYINWVKQRPGQGLEWIARIYPGNGNTYYNEKFKGKATLTAEKSSSTVNMQVSSLTSEDSAVYFCARGGSSDRIYYYAMDYWGQGTSVTVSS VL: DIQMNQSPSSLSASLGDTITITCHASQNINVWLSWYQQKPGNIPKLLIYKASNLHTGVPSRFSGSGSGTGFTLAISSLQPEDIATYYCQQGQSYPLTFGSGTKLALK | binds |
